We go through 1 molecule from patent US20110275138A1, “KETOSE 3-EPIMERASE, ITS PREPARATION AND USES” (KABUSHIKI KAISHA HAYASHIBARA SEIBUTSU KAGAKU KENKYUJO, priority 2005, published 2011).

Marks after values point to notes of the source that are not given here.

A short description of series [1]: Ketose 3-epimerase activity assay: D-fructose formed from D-psicose. Conditions: D-psicose 3-epimerase activity, per purification step. The class given is biochemical. Here is the method: The activity of the ketose 3 -epimerase of the present invention can be assayed by measuring the amount of D-fructose formed from D-psicose as a substrate. Specifically, the activity of the enzyme can be assayed as follows: A substrate solution is prepared by dissolving D-psicose in 20 mM Tris-HCl buffer (pH 8.0) containing 1 mM MnCl2 to give a final concentration of 1% (w/v). Two milliliters of the substrate solution is admixed with 0.5 ml of the enzyme solution, and the mixture solution is incubated at 45° C. for 30 min. The reaction is stopped by keeping the reaction mixture in boiling water bath for 5 min. Successively, 1 ml of the reaction mixture is admixed with 1 ml of deionized water and 1 ml NADP solution, prepared by dissolving 2.37 g of NADP, 5.93 g of ATP, and 1 g of MgSO4 7H2O into 500 ml of 0.3 M triethanolamine-HCl buffer (pH 7.6). […] After keeping the resulting mixture at room temperature for 30 min, absorbance of the mixture at 340 nm was measured for determining the amount of D-fructose formed by the reaction. […]
The following experiments explain the present invention in detail. In the following experiments, D-psicose 3-epimerase activity, converting D-psicose into D-fructose, was assayed according to the aforementioned assay method and expressed as ketose 3-epimerase activity.

Series [2] in a line: Optimum pH and optimum temperature of the enzyme. In kind it is biochemical. Conditions: for Optimum temperature: pH 8.0, 30 min. As for the experimental part:
The activity of the ketose 3 -epimerase of the present invention can be assayed by measuring the amount of D-fructose formed from D-psicose as a substrate. Specifically, the activity of the enzyme can be assayed as follows: A substrate solution is prepared by dissolving D-psicose in 20 mM Tris-HCl buffer (pH 8.0) containing 1 mM MnCl2 to give a final concentration of 1% (w/v). Two milliliters of the substrate solution is admixed with 0.5 ml of the enzyme solution, and the mixture solution is incubated at 45° C. for 30 min. The reaction is stopped by keeping the reaction mixture in boiling water bath for 5 min. Successively, 1 ml of the reaction mixture is admixed with 1 ml of deionized water and 1 ml NADP solution, prepared by dissolving 2.37 g of NADP, 5.93 g of ATP, and 1 g of MgSO4 7H2O into 500 ml of 0.3 M triethanolamine-HCl buffer (pH 7.6). While, Enzyme solution A and B, described below, were respectively diluted 4-fold with 0.3 M triethanolamine-HCl buffer (pH 7.6) and then both solutions were mixed in equal amount to make into a mixed enzyme solution. Then, 40 ml of the mixed enzyme solution was admixed with the mixture prepared above. After keeping the resulting mixture at room temperature for 30 min, absorbance of the mixture at 340 nm was measured for determining the amount of D-fructose formed by the reaction. […]
According to the methods described in Experiment 2, the soluble fraction of cell homogenate, obtained by the method in Experiment 5, was partially purified by salting out, dialysis and successive column chromatographies on “SEPABEADS” gel and “BUTYL-TOYOPEARL” gel, and the partially purified enzyme preparation was analyzed according to the methods in Experiment 3. […]

B1: ketose 3-epimerase: purified ketose 3-epimerase from Rhizobium leguminosarum ATCC14480, 282 amino acid residues represented by SEQ ID NO: 2 (protein, listed as Rhizobium leguminosarum)
chain: MEGFGVHTSMWTMNWDRAGAEKAIAGAVHYKMDFIEIALLNAPAVDAKHTRALLEKNKLRAVCSLGLPEHAWASVRPDAAIEHLKVAIEKTAEMNAEALSGVIFGGIGERTGVPPTQGEYDNIAKVLDVAAKHARKHGIQLGVEAVNRYENHLINSAQQAVDMVERVGADNIFVHLDTYHMNIEEKGAANGILIARDHLKYIHLSESDRGTPGYGNIPWDAIYAALAAIGFKGGLAMESFINMPPEVAYGLAVWRPVARDMEEVMDKGLPFLRNKAEQYGLI
Take B1: in series [1], the “Specific activity of ketohexose 3-epimerase” value is 41.6 units/mg-protein. The “Optimum pH” value in series [2] (45° C., 30 min, in the presence of 1 mM Mn2+ ion) is recorded as 9.0-9.5*. Also, the Optimum temperature in series [2] (in the absence of 1 mM Mn2+ ion) was 50 °C; in series [2] (in the presence of 1 mM Mn2+ ion), “(65° C.)*”.
